The values below come from article PMC8484680.

Experiment [1] deals with PsFucS1, fucoidan active sulfatase (subfamily S1_13) from Pseudoalteromonas sp. MB47 (Pseudoalteromonas sp. MB47). The experiment is described as follows: crystal structure; X-ray, 2.50 Å, space group P212121, six molecules in the asymmetric unit; crystals grown at 20 °C in 0.1 M sodium acetate pH 4.6, 0.1 M NaCl, 20% PEG 3350; interfaces analysed with PISA.
For experiment [2] the target is unchanged. The experiment is described as follows: SEC; analytical SEC, HiLoad 16/600 Superdex 200 pg, room temperature, 200 µl of His-tagged PsFucS1 at 6 mg/ml, 50 mM Tris-HCl pH 8.0, 100 mM NaCl; calibrated with standards of 13.7-440 kDa.

With “PsFucS1, fucoidan active sulfatase (subfamily S1_13) from Pseudoalteromonas sp. MB47 (enzyme)”, the stoichiometry N in experiment [1] and in experiment [2] was 6 in each case.
